Measured values from US20240262915A1 (NANJING SANHOME PHARMACEUTICAL, published 2024).
One block for each binder: values may come before it.

Legend:
[1] = target: T1, TIGIT-mFc (extracellular region of human TIGIT with mIgG1-Fc tag) (human); assay: ELISA, blocking of TIGIT-mFc binding to coated CD155-hFc (competitor CD155-hFc)
T1 construct: A bought TIGIT-mFc (Acro Biosystems TIT-H5253) is used for immunization; also called recombinant humanized TIGIT-mFc
T1 chain: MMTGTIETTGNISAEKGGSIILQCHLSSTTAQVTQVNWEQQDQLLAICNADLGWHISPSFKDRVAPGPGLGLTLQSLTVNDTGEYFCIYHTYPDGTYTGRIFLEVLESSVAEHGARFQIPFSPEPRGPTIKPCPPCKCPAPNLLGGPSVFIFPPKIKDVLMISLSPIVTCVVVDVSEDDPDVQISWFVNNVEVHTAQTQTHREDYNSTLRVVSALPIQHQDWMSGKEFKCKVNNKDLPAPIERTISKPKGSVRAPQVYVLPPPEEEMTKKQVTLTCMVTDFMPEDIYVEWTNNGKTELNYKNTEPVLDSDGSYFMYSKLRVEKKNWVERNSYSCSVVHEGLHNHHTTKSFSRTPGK

[2] = target: T2, full-length TIGIT on hTIGIT-CHO-K1 cells (human, UniProt Q495A1 22-244); assay: FACS on hTIGIT-CHO-K1 cells
T2 construct: CHO-K1 cells stably transfected with pTargeT-TIGIT; also called TIGIT on cell surface
T2 sequence: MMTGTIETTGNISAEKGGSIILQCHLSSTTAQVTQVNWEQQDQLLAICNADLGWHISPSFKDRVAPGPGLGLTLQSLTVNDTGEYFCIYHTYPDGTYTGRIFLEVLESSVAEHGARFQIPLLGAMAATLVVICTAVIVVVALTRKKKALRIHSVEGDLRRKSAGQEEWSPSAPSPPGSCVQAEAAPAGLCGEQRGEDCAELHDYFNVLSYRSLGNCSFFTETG

[3] = target: T3, TIGIT on TIGIT/NFAT-reporter-Jurkat cells (UniProt Q495A1 22-244, limits assumed); assay: cell-based or functional assay
T3 sequence (looked up): T2 sequence

PD-L1-his = target: T4, PD-L1-his (human, UniProt Q9NZQ7 19-238, limits assumed); assay: BLI, Fortebio Octet RED96, antibody on AHC sensor, PD-L1-his in solution
T4 construct: also called human PD-L1 protein
T4 sequence (Q9NZQ7 19-238 limits assumed): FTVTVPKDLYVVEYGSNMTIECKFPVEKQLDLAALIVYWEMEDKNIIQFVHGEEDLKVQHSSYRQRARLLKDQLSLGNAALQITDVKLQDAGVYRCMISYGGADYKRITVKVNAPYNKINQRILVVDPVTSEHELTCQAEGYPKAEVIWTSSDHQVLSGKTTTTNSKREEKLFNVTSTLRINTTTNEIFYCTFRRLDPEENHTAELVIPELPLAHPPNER

[4] = target: T5, Human TIGIT-His protein (Sino Biological, 10917-H08H) (human, UniProt Q495A1 22-141); assay: ELISA, human TIGIT-His coated
T5 sequence (looked up): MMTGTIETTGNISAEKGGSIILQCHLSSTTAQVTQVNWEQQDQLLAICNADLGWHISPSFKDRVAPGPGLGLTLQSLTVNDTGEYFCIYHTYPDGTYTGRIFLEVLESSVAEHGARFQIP

[5] = target: T6, TIGIT-his (extracellular region of human TIGIT protein fused with his) (human, UniProt Q495A1 22-141); assay: BLI, Fortebio Octet RED96, SA sensor
T6 construct: also called antigen TIGIT-his
T6 sequence: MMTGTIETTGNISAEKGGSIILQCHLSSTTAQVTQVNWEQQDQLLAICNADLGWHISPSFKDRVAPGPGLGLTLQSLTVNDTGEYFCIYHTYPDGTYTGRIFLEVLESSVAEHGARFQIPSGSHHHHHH

B1: humanized antibody 22G2 (antibody, IgG4, V domains shown)
VH: QVQLQESGPGLVKPSETLSLTCTVSGGSVSSGIYYWSWIRQPPGKGLEWIGYIYYSGSTNYNPSLKSRVTISVDTSKNQFSLKLSSVTAADTAVYYCARDYYVSGNYYNVDYYFFGVDVWGQGTTVTVSS
VL: EIVLTQSPATLSLSPGERATLSCRASQSVSSYLAWYQQKPGQAPRLLIYDASNRATGIPARFSGSGSGTDFTLTISSLEPEDFAVYYCQQRSNWPPLFTFGPGTKVDIK
notes: Expressed from pHR-22G2-hG4 (IgG4 heavy chain) and pHR-22G2-hk (light chain); from US 2016/0176963A1; also called positive control antibody
IC50 [1]: 1.34 nM
EC50 [2]: 0.411 nM
EC50 (nM), luciferase expression induced by anti-TIGIT antibody [3]: 0.104 nM
Top (fold), luciferase expression induced by anti-TIGIT antibody [3]: 1.59 fold

B3: SHS006-17CHI (antibody, V domains shown)
VH: QVTLKESGPGILQPSQTLSLTCTFSGFSLRTYGLGVGWIRQLSGKGLEWLANIWWDDDEYYNPSLKNRLTISKDTSNNQAFLKITNVDTADTATYYCARIARPHYYWDGRYILDVWGQGASVTVSS
VL: DIMMTQSPLSVAVTPGESASISCRSSKSLLHSNGITYLSWYLQRPEKSPQLLIFQISNLASGVSDRFSGSGSGTDFTLIISKVETEDVGIYYCMQFLEVPYTFGAGTKLELK
notes: Chimeric antibody with human heavy and light chain constant regions
IC50 [1]: 1.03 nM
EC50 [4]: 1.58 nM
EC50 [2]: 0.408 nM

B4: SHS006-T-Hu17-31 (antibody, IgG4, V domains shown)
VH: QVTLKESGPVLVKPTETLTLTCTFSGFSLRTYGLGVGWIRQPPGKALEWLANIWWDDDEYYNPSLKNRLTISKDTSKSQAVLTMTNMDPVDTATYYCARIARPHYYWDGRYILDVWGQGTTVTVSS
VL: DIVMTQSPLSLPVTPGEPASISCRSSKSLLHSNGITYLSWYLQKPGQSPQLLIYQISNLASGVPDRFSGSGSGTDFTLKISRVEAEDVGVYYCMQFLEVPYTFGQGTKLEIK
notes: Humanized
IC50 [1]: 0.954 nM
Kd [5]: 0.327 nM
koff [5]: 0.000239 s⁻¹
kon [5]: 731000 M⁻¹ s⁻¹
EC50 [4]: 1.59 nM
EC50 [2]: 0.303 nM

B5: HuPL7-21 (antibody, IgG4, V domains shown)
VH: QVQLQESGPGLVKPSQTLSLTCTVSGDSITSGYWNWIRQHPGKGLEYIGYISYTGSTYYNLSLKSRVTISRDTSKNQFSLKLSSVTAADTAVYYCARYILWLRHFDYWGQGTLVTVSS
VL: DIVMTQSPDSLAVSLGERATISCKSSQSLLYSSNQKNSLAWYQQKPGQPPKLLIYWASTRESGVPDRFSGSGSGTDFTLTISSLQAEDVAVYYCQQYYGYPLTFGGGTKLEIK
notes: also called humanized anti-PD-L1 antibody HuPL7-21
Kd (PD-L1-his): 1.49 nM
koff (PD-L1-his): 0.000276 s⁻¹
kon (PD-L1-his): 185000 M⁻¹ s⁻¹

B6: SHS006-23 (antibody, V domains shown)
VH: EVQLVESEGGLVQPGASVKLSCVGSGFSFSDHWMSWVRQTPGKTMEWIGNIQYDGSYTNYAPSLKNRFTISRDNAKNTLYLQMTNLRSEDTATYYCTRGHFRITMASMGASASVYWGQGVMVTVSS
VL: DIQMTQSPSSLPTSLGDRVTITCRTSQDIGNSLRWFQQKPGKSPRLMIHGATNLANGVPSRFSGSRAGSDYSLTINSLESEDMAMYYCLQHNEYPLTFGSGTKLEIK
EC50 (nM), luciferase expression induced by anti-TIGIT antibody [3]: 0.019 nM
Top (fold), luciferase expression induced by anti-TIGIT antibody [3]: 1.62 fold

More lines, now with the values ahead:

Kd (PD-L1-his): 1.9 nM
koff (PD-L1-his): 0.000225 s⁻¹
kon (PD-L1-his): 119000 M⁻¹ s⁻¹
B2: HuPL16-42 (antibody, IgG4, V domains shown)
VH: QVQLVQSGAEVAKPGASVKMSCKASGYTFTRNTMHWIKQAPGQRLEWIGFIDPHNTYTRYNQKFKDRATLTADTSASTAYMELSSLRSEDTAVYYCARWPMDYWGQGTLVTVSS
VL: DIVMTQSPDSLAVSLGERVTMRCKSSQSLSWSENQNNYLSWYQQKPGQPPKLLIYGASIRESGVPDRFSGSGSGTDFTLTISSVQAEDVGVYYCQHNHGSFLPYTFGQGTKLEIK
notes: also called humanized anti-PD-L1 antibody HuPL16-42

IC50 [1]: 1.04 nM
EC50 [4]: 1.69 nM
EC50 [2]: 0.235 nM
B7: SHS006-23CHI (antibody, V domains shown)
VH: B6 VH
VL: B6 VL
notes: as for B3
